Test results taken from PMC6123813 (Communications biology, 2018).

Experiments:
[1] = target: m-ephrinA1 (Homo sapiens) (UniProt P20827); settings: cited from earlier work
[2] = target: YSA peptide (synthetic construct); settings: cited from earlier work
[3] = target: the molecule itself; assay: FRET or BRET; FSI-FRET (two-photon spectral imaging) between EphA2-mTurq and EphA2-eYFP in the plasma membrane of live HEK293T cells in hypo-osmotic medium; no ligand; dimer to monomers, two-dimensional constants in receptors per μm^2

Chain of EphA2 (P29317 24-537): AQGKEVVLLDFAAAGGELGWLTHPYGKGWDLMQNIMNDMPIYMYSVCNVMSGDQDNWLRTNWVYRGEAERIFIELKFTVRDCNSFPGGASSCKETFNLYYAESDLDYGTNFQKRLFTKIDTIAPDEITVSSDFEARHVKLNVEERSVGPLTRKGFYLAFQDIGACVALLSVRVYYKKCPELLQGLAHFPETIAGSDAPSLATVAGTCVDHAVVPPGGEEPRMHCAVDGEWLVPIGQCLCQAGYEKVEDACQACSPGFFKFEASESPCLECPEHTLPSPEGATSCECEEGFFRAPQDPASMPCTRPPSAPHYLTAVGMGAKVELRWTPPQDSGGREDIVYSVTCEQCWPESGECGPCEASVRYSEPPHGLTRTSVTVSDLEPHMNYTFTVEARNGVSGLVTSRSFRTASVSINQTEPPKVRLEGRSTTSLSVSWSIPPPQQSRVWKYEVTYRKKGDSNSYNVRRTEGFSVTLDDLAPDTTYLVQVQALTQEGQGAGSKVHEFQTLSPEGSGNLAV
Chain of m-ephrinA1 (Homo sapiens) (P20827 19-182): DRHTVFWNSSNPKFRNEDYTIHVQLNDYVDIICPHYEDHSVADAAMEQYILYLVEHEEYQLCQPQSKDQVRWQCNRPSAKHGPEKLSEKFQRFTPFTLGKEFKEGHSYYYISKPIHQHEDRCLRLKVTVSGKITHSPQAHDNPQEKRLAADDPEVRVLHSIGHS

| Molecule | Kd [1] | Kd [2] | stoichiometry N [3] |
| --- | --- | --- | --- |
| EphA2 (from UniProt P29317) | 25 nM | 200 nM |  |
| EphA2 L223R/L254R/V255R triple mutant, full-length, tagged at the C-terminus with mTurquoise or eYFP (receptor, UniProt P29317 24-976, looked up) AQGKEVVLLDFAAAGGELGWLTHPYGKGWDLMQNIMNDMPIYMYSVCNVMSGDQDNWLRTNWVYRGEAERIFIELKFTVRDCNSFPGGASSCKETFNLYYAESDLDYGTNFQKRLFTKIDTIAPDEITVSSDFEARHVKLNVEERSVGPLTRKGFYLAFQDIGACVALLSVRVYYKKCPELLQGLAHFPETIAGSDAPSRATVAGTCVDHAVVPPGGEEPRMHCAVDGEWRRPIGQCLCQAGYEKVEDACQACSPGFFKFEASESPCLECPEHTLPSPEGATSCECEEGFFRAPQDPASMPCTRPPSAPHYLTAVGMGAKVELRWTPPQDSGGREDIVYSVTCEQCWPESGECGPCEASVRYSEPPHGLTRTSVTVSDLEPHMNYTFTVEARNGVSGLVTSRSFRTASVSINQTEPPKVRLEGRSTTSLSVSWSIPPPQQSRVWKYEVTYRKKGDSNSYNVRRTEGFSVTLDDLAPDTTYLVQVQALTQEGQGAGSKVHEFQTLSPEGSGNLAVIGGVAVGVVLLLVLAGVGFFIHRRRKNQRARQSPEDVYFSKSEQLKPLKTYVDPHTYEDPNQAVLKFTTEIHPSCVTRQKVIGAGEFGEVYKGMLKTSSGKKEVPVAIKTLKAGYTEKQRVDFLGEAGIMGQFSHHNIIRLEGVISKYKPMMIITEYMENGALDKFLREKDGEFSVLQLVGMLRGIAAGMKYLANMNYVHRDLAARNILVNSNLVCKVSDFGLSRVLEDDPEATYTTSGGKIPIRWTAPEAISYRKFTSASDVWSFGIVMWEVMTYGERPYWELSNHEVMKAINDGFRLPTPMDCPSAIYQLMMQCWQQERARRPKFADIVSILDKLIRAPDSLKTLADFDPRVSIRLPSTSGSEGVPFRTVSEWLESIKMQQYTEHFMAAGYTAIEKVVQMTNDDIKRIGVRLPGHQKRIAYSLLGLKDQVNTVGIPI |  |  | 2 |
